In PMC4961739, “Regulation of post-Golgi LH3 trafficking is essential for collagen homeostasis” (Nature Communications, 2016):

Target: T1, His6-cMyc4-tagged VPS33B (human, UniProt Q9H267 1-617)
T1 construct: VPS33B, human, UniProt Q9H267; construct pUPE.02.13-VPS33B; also called pUPE.02.13-VPS33B; recombinant tagged VPS33B; source: HEK293 cells stably expressing Epstein-Barr virus Nuclear Antigen I, co-transfected with VIPAR; in lysate, then co-purified with VIPAR (Streptactin Sepharose, Superdex 200); not shown: His6-cMyc4, N-terminal, kept
T1 sequence (looked up): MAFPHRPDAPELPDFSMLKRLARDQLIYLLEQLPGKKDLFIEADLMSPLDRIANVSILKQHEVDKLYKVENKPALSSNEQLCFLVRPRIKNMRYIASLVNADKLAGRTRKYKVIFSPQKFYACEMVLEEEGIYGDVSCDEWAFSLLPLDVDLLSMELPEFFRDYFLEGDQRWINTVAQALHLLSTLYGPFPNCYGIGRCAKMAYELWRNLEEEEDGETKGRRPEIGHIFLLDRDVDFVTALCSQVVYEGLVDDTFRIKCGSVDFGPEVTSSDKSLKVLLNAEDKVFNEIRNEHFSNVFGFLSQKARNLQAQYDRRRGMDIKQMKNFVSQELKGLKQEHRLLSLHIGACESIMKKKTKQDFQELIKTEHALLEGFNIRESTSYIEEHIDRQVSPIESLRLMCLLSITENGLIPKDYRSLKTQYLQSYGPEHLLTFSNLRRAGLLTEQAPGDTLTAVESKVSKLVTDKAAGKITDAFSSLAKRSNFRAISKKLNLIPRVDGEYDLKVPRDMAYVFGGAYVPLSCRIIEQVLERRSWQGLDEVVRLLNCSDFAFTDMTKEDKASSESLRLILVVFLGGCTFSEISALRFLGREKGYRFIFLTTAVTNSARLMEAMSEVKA
Assay: affinity purification with mass spectrometry; His6-StrepII3-VIPAR and His6-cMyc4-VPS33B coexpressed in HEK293 cells; soluble lysate (0.3% NP-40, NaCl to 300 mM) on Streptactin Sepharose, eluted with 2.5 mM desthiobiotin, Superdex 200; purified sample analysed by LC-MS/MS
Settings: partners not purified

B1: His6-StrepII3-tagged VIPAR (natural protein, human, UniProt Q9H9C1 1-493, looked up)
chain: MNRTKGDEEEYWNSSKFKAFTFDDEDDELSQLKESKRAVNSLRDFVDDDDDDDLERVSWSGEPVGSISWSIRETAGNSGSTHEGREQLKSRNSFSSYAQLPKPTSTYSLSSFFRGRTRPGSFQSLSDALSDTPAKSYAPELGRPKGEYRDYSNDWSPSDTVRRLRKGKVCSLERFRSLQDKLQLLEEAVSMHDGNVITAVLIFLKRTLSKEILFRELEVRQVALRHLIHFLKEIGDQKLLLDLFRFLDRTEELALSHYREHLNIQDPDKRKEFLKTCVGLPFSAEDSAHIQDHYTLLERQIIIEANDRHLESAGQTEIFRKHPRKASILNMPLVTTLFYSCFYHYTEAEGTFSSPVNLKKTFKIPDKQYVLTALAARAKLRAWNDVDALFTTKNWLGYTKKRAPIGFHRVVEILHKNNAPVQILQEYVNLVEDVDTKLNLATKFKCHDVVIDTYRDLKDRQQLLAYRSKVDKGSAEEEKIDALLSSSQIRWKN
notes: VIPAR (VIPAS39), human, UniProt Q9H9C1; construct pUPE.02.09-VIPAR; also called pUPE.02.09-VIPAR; recombinant tagged VIPAR; source: HEK293 cells stably expressing Epstein-Barr virus Nuclear Antigen I, co-transfected with VPS33B; in lysate, then purified (Streptactin Sepharose, Superdex 200); not shown: His6-StrepII3, N-terminal, kept
B1: binds.
